Consider 55 sequences from paper PMC4434323.

Data set [1] relates to T1, nhr-216 (T09D3.4) (Caenorhabditis elegans).
T1 sequence: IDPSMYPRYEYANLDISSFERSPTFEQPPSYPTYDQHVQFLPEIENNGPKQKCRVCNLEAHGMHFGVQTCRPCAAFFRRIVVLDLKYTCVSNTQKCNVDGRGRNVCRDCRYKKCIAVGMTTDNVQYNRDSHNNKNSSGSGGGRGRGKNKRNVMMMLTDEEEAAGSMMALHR

In data set [2] the target is T2, nhr-42 (C33G8.6) (Caenorhabditis elegans) (UniProt O76828).
T2 sequence: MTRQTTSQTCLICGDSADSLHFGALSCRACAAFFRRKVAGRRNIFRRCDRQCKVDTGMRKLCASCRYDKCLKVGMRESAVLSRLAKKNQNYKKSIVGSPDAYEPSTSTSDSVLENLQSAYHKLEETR

For data set [3], the target named is T3, nhr-142 (F44E7.8) (Caenorhabditis elegans) (UniProt J7SF93).
T3 sequence: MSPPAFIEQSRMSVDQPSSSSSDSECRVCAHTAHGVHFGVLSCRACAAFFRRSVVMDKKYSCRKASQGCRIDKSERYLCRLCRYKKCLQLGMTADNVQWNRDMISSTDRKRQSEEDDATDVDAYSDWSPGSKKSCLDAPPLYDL

Data set [4] concerns the target T4, nhr-232 (Y22F5A.1) (Caenorhabditis elegans) (UniProt A0A486WVR6).
T4 sequence: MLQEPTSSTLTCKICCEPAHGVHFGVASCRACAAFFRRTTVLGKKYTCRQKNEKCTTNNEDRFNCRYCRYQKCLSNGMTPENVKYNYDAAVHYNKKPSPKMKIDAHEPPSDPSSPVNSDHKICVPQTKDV

The target in data set [5] is T5, odr-7 (T18D3.2) (Caenorhabditis elegans) (UniProt P41933).
T5 sequence: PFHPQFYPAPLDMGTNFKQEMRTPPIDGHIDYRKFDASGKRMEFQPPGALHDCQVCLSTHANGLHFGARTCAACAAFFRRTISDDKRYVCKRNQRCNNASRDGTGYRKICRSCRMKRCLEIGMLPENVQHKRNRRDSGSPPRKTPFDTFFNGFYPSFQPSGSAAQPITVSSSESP

Data set [6] concerns the target T6, nhr-66 (T09A12.4) (Caenorhabditis elegans) (UniProt H2KYJ8).
T6 sequence: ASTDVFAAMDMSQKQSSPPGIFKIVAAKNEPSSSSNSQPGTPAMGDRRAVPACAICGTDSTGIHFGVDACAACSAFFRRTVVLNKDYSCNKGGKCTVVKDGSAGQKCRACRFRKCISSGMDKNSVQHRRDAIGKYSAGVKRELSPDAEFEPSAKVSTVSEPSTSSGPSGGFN

For data set [7], the target named is T7, nhr-1 (R09G11.2) (Caenorhabditis elegans) (UniProt Q21878).
T7 sequence: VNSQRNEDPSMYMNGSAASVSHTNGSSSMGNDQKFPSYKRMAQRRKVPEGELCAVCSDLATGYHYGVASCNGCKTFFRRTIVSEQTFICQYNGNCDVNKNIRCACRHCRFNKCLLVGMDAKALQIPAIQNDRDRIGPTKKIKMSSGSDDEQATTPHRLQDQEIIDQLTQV

For data set [8], the target named is T8, nhr-204 (R02C2.4) (Caenorhabditis elegans) (UniProt O44543).
T8 sequence: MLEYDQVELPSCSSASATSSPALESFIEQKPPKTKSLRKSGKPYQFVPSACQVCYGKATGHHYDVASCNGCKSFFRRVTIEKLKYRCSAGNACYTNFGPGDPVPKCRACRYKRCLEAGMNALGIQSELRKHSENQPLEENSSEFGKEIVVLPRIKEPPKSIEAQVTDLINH

The target of data set [9] is nhr-34 (F58G6.5) (Caenorhabditis elegans) (UniProt Q21006).
The target of data set [10] is T9, nhr-3 (H01A20.1) (Caenorhabditis elegans) (UniProt Q9XTJ4).
T9 sequence: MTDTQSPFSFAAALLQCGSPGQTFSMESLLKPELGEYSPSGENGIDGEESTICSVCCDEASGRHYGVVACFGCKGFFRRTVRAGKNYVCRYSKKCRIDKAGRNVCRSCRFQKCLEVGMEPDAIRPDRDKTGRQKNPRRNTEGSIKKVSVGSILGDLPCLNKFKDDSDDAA

Data set [11] has as its target T10, nhr-46 (C45E5.6) (Caenorhabditis elegans) (UniProt Q95QR2).
T10 sequence: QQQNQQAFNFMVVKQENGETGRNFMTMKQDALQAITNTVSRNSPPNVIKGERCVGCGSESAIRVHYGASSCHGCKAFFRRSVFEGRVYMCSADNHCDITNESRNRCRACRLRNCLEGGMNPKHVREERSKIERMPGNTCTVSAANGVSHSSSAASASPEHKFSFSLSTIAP

Chain of nhr-34 (F58G6.5) (Caenorhabditis elegans) (Q21006 99-268): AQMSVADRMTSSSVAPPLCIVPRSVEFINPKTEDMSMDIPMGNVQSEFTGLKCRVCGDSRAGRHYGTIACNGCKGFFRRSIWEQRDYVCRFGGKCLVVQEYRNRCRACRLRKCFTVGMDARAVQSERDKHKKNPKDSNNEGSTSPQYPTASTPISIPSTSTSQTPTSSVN

In data set [1], “GTCAGAAC (double strand) [8-mer GTCAGAAC]” registered a binding signal (PBM E-score (-0.5 to 0.5)) of 0.498.

Take “TAGTCACA (double strand) [8-mer TAGTCACA]”: the binding signal (PBM E-score (-0.5 to 0.5)) in data set [2] came to 0.494; in data set [3], 0.493; in data set [4] it was 0.482.

For “GGACACAA (double strand) [8-mer GGACACAA]”, the binding signal (PBM E-score (-0.5 to 0.5)) in data set [3] was determined as 0.493; in data set [4], 0.473.

In data set [5], “AATTGTAC (double strand) [8-mer AATTGTAC]” showed a binding signal (PBM E-score (-0.5 to 0.5)) of 0.46.

In data set [6], “ACTACACA (double strand) [8-mer ACTACACA]” displayed a binding signal (PBM E-score (-0.5 to 0.5)) of 0.484.

On to “GATGATCA (double strand) [8-mer GATGATCA]”, for which the binding signal (PBM E-score (-0.5 to 0.5)) in data set [7] came to 0.488.

In data set [7], “ATGATCAT (double strand) [8-mer ATGATCAT]” displayed a binding signal (PBM E-score (-0.5 to 0.5)) of 0.476.

In data set [4], “ACACAAAA (double strand) [8-mer ACACAAAA]” displayed a binding signal (PBM E-score (-0.5 to 0.5)) of 0.465.

For “AGTGATCA (double strand) [8-mer AGTGATCA]”, the binding signal (PBM E-score (-0.5 to 0.5)) in [7] came out at 0.495.

Turning to “ATTCTGAC (double strand) [8-mer ATTCTGAC]”, in [1], the binding signal (PBM E-score (-0.5 to 0.5)) was 0.495.

For “CGTCAGAA (double strand) [8-mer CGTCAGAA]”, the binding signal (PBM E-score (-0.5 to 0.5)) in [1] came out at 0.493.

Take “GGTGATCA (double strand) [8-mer GGTGATCA]”: the binding signal (PBM E-score (-0.5 to 0.5)) in [7] was found to be 0.488.

With “AATTGTAG (double strand) [8-mer AATTGTAG]”, the binding signal (PBM E-score (-0.5 to 0.5)) in data set [5] came out at 0.489.

Sequence “ATTGTAGC (double strand) [8-mer ATTGTAGC]” had a binding signal (PBM E-score (-0.5 to 0.5)) in data set [5] of 0.487.

For the sequence “AGTCATAA (double strand) [8-mer AGTCATAA]”, the results for the binding signal (PBM E-score (-0.5 to 0.5)) in data set [3] and in [4] were 0.491 and 0.48, respectively.

“GGTCACAA (double strand) [8-mer GGTCACAA]”: the binding signal (PBM E-score (-0.5 to 0.5)) in data set [3] was determined as 0.495; in [4], 0.485.

Sequence “GGACAGAA (double strand) [8-mer GGACAGAA]” yielded a binding signal (PBM E-score (-0.5 to 0.5)) in data set [1] of 0.493.

Sequence “AATGATCA (double strand) [8-mer AATGATCA]” displayed a binding signal (PBM E-score (-0.5 to 0.5)) in [7] of 0.493.

On to “ACTGATCA (double strand) [8-mer ACTGATCA]”, for which the values for the binding signal (PBM E-score (-0.5 to 0.5)) in [8] and in [7] were 0.477 and 0.478, respectively.

For the sequence “ATTGTGAC (double strand) [8-mer ATTGTGAC]”, the figures for the binding signal (PBM E-score (-0.5 to 0.5)) in data set [3] and in data set [4] were 0.494 and 0.489, respectively.

On to “ACTACAAC (double strand) [8-mer ACTACAAC]”, for which, in [6], the binding signal (PBM E-score (-0.5 to 0.5)) is 0.482.

“AATCAGAA (double strand) [8-mer AATCAGAA]” returned a binding signal (PBM E-score (-0.5 to 0.5)) in [1] of 0.497.

Regarding “GTCACACA (double strand) [8-mer GTCACACA]”, in data set [4], the binding signal (PBM E-score (-0.5 to 0.5)) amounted to 0.46.

Regarding “ATCAGAAG (double strand) [8-mer ATCAGAAG]”, the binding signal (PBM E-score (-0.5 to 0.5)) in data set [1] amounted to 0.494.

Sequence “ACTACACT (double strand) [8-mer ACTACACT]” showed a binding signal (PBM E-score (-0.5 to 0.5)) in [6] of 0.487.

Consider “GATCAGAA (double strand) [8-mer GATCAGAA]”, for which the binding signal (PBM E-score (-0.5 to 0.5)) in [1] was 0.497.

“CTACAATC (double strand) [8-mer CTACAATC]”: in data set [5], the binding signal (PBM E-score (-0.5 to 0.5)) came to 0.466.

As to “AAGTCAGA (double strand) [8-mer AAGTCAGA]”, the binding signal (PBM E-score (-0.5 to 0.5)) in [1] is 0.493.

For the sequence “AGAGATCA (double strand) [8-mer AGAGATCA]”, the binding signal (PBM E-score (-0.5 to 0.5)) in [9] was found to be 0.488; in [10] it was 0.462; in data set [7] it was 0.474; in [11] it was 0.478.

Sequence “GTCAGAAA (double strand) [8-mer GTCAGAAA]” had a binding signal (PBM E-score (-0.5 to 0.5)) in data set [1] of 0.496.

Sequence “AGCGATCA (double strand) [8-mer AGCGATCA]” came in with a binding signal (PBM E-score (-0.5 to 0.5)) in data set [7] of 0.476.

The sequence “AACTACAC (double strand) [8-mer AACTACAC]” came in with a binding signal (PBM E-score (-0.5 to 0.5)) in data set [6] of 0.486.

“TACAAATA (double strand) [8-mer TACAAATA]” had a binding signal (PBM E-score (-0.5 to 0.5)) in [5] of 0.461.

For “GTGATCAC (double strand) [8-mer GTGATCAC]”, in data set [7], the binding signal (PBM E-score (-0.5 to 0.5)) worked out at 0.489.

In data set [6], “ACTACACG (double strand) [8-mer ACTACACG]” returned a binding signal (PBM E-score (-0.5 to 0.5)) of 0.481.

For “CAACTACA (double strand) [8-mer CAACTACA]”, the binding signal (PBM E-score (-0.5 to 0.5)) in data set [6] was 0.484.

For “AAATTGTA (double strand) [8-mer AAATTGTA]”, in data set [5], the binding signal (PBM E-score (-0.5 to 0.5)) came to 0.456.

In data set [1], “AGTCAGAA (double strand) [8-mer AGTCAGAA]” came in with a binding signal (PBM E-score (-0.5 to 0.5)) of 0.498.

“GGTCAGAA (double strand) [8-mer GGTCAGAA]”: the binding signal (PBM E-score (-0.5 to 0.5)) in data set [1] amounted to 0.498.

As to “ATGATCAC (double strand) [8-mer ATGATCAC]”, the binding signal (PBM E-score (-0.5 to 0.5)) in data set [7] stood at 0.486.

In turn, “TACTACAA (double strand) [8-mer TACTACAA]” had a binding signal (PBM E-score (-0.5 to 0.5)) in [5] of 0.474.

Turning to “GTGATCAA (double strand) [8-mer GTGATCAA]”, the binding signal (PBM E-score (-0.5 to 0.5)) in [8] was 0.478; in data set [7], 0.472.

For the sequence “TCTGACCA (double strand) [8-mer TCTGACCA]”, the binding signal (PBM E-score (-0.5 to 0.5)) in [1] worked out at 0.491.

In data set [5], “ATTTGTAG (double strand) [8-mer ATTTGTAG]” gave a binding signal (PBM E-score (-0.5 to 0.5)) of 0.479.

Sequence “ATCAGAAC (double strand) [8-mer ATCAGAAC]” displayed a binding signal (PBM E-score (-0.5 to 0.5)) in data set [1] of 0.494.

In the case of “ATTGATCA (double strand) [8-mer ATTGATCA]”, the binding signal (PBM E-score (-0.5 to 0.5)) in data set [8] came out at 0.489; in data set [7], 0.479.

In data set [6], “AATGTAGT (double strand) [8-mer AATGTAGT]” returned a binding signal (PBM E-score (-0.5 to 0.5)) of 0.48.

In [4], “GACACAAA (double strand) [8-mer GACACAAA]” came in with a binding signal (PBM E-score (-0.5 to 0.5)) of 0.475.

On to “AAACTACA (double strand) [8-mer AAACTACA]”, for which the binding signal (PBM E-score (-0.5 to 0.5)) in [6] turned out to be 0.484.

As for “CTTCTGAC (double strand) [8-mer CTTCTGAC]”, the binding signal (PBM E-score (-0.5 to 0.5)) in [1] was 0.498.

As to “AGTCACAG (double strand) [8-mer AGTCACAG]”, the binding signal (PBM E-score (-0.5 to 0.5)) in data set [3] is 0.492; in [4], 0.465.

For “TGTCAGAA (double strand) [8-mer TGTCAGAA]”, the binding signal (PBM E-score (-0.5 to 0.5)) in data set [1] worked out at 0.496.

For “GTTGATCA (double strand) [8-mer GTTGATCA]”, the binding signal (PBM E-score (-0.5 to 0.5)) in data set [8] was 0.482; in [7], 0.477.

Turning to “ATACAATA (double strand) [8-mer ATACAATA]”, the binding signal (PBM E-score (-0.5 to 0.5)) in [5] amounted to 0.461.

For “TGTCACAA (double strand) [8-mer TGTCACAA]”, the values for the binding signal (PBM E-score (-0.5 to 0.5)) in [3] and in data set [4] were 0.49 and 0.474, respectively.
